Here are results for 43 variants from the Human Domainome abundance scans (Beltran et al. 2025).

First the molecules themselves.
B1: Proto-oncogene vav, residues 782 to 842; numbered along this chain, P15498 (parent)
chain: KYFGTAKARYDFCARDRSELSLKEGDIIKILNKKGQQGWWRGEIYGRVGWFPANYVEEDYS

± gives the uncertainty stated by the source.

Variants of B1 are the subject of the data set. Nature of the data set: abundance fitness (aPCA) (normalised: wild type 0, dead -1); higher = more abundant; growth selection in yeast, the domain comes from the species named. Conditions: Homo sapiens.
On to KYFGTAKARYDFCARDRSELSLKEGDIIKILNKKGQQGWWRGEIYGRVGWFPANGVEEDYS [Y55G], for which the abundance fitness is -0.396 ± 0.11.

Take KYFGTAKARYDFCARDRSELSLKEGDIIKILNKKGQQGWWRGEIYGRVGWFPANPVEEDYS [Y55P]: the abundance fitness was -0.925 ± 0.37.

Consider KYFGTAKARYDFCARDRSELSLKEGDIIKILNKKGQQGWWRGEIYGRVGWFPANDVEEDYS [Y55D], for which the abundance fitness was -0.736 ± 0.19.

Regarding KYFGTAKARYDFCARDRSELSLKEGDIIKILNKKGQQGWWRGEIYGRVGWFPANQVEEDYS [Y55Q], the abundance fitness is -0.457 ± 0.14.

With KYFGTAKARYDFCARDRSELSLKEGDIIKILNKKGQQGWWRGEIYGRVGWFPANEVEEDYS [Y55E], the abundance fitness is -0.763 ± 0.23.

As to KYFGTAKARYDFCARDRSELSLKEGDIIKILNKKGQQGWWRGEIYGRVGWFPANAVEEDYS [Y55A], the abundance fitness came to 0.053 ± 0.073.

Take KYFGTAKARYDFCARDRSELSLKEGDIIKILNKKGQQGWWRGEIYGRVGWFPANVVEEDYS [Y55V]: the abundance fitness is -0.074 ± 0.046.

On to KYFGTAKARYDFCARDRSELSLKEGDIIKILNKKGQQGWWRGEIYGRVGWFPANWVEEDYS [Y55W], for which the abundance fitness is -0.198 ± 0.17.

For KYFGTAKARYDFCARDRSELSLKEGDIIKILNKKGQQGWWRGEIYGRVGWFPANHVEEDYS [Y55H], the abundance fitness was -0.226 ± 0.14.

Regarding KYFGTAKARYDFCARDRSELSLKEGDIIKILNKKGQQGWWRGEIYGRVGWFPANCVEEDYS [Y55C], the abundance fitness is 0.093 ± 0.11.

Take KYFGTAKARYDFCARDRSELSLKEGDIIKILNKKGQQGWWRGEIYGRVGWFPANRVEEDYS [Y55R]: the abundance fitness is -0.135 ± 0.057.

KYFGTAKARYDFCARDRSELSLKEGDIIKILNKKGQQGWWRGEIYGRVGWFPANFVEEDYS [Y55F]: the abundance fitness is -0.258 ± 0.16.

On to KYFGTAKARYDFCARDRSELSLKEGDIIKILNKKGQQGWWRGEIYGRVGWFPANLVEEDYS [Y55L], for which the abundance fitness is 0.058 ± 0.05.

On to KYFGTAKARYDFCARDRSELSLKEGDIIKILNKKGQQGWWRGEIYGRVGWFPANTVEEDYS [Y55T], for which the abundance fitness is -0.206 ± 0.097.

KYFGTAKARYDFCARDRSELSLKEGDIIKILNKKGQQGWWRGEIYGRVGWFPANSVEEDYS [Y55S]: the abundance fitness is -0.206 ± 0.094.

Consider KYFGTAKARYDFCARDRSELSLKEGDIIKILNKKGQQGWWRGEIYGRVGWFPANKVEEDYS [Y55K], for which the abundance fitness was -0.388 ± 0.11.

For KYFGTAKARYDFCARDRSELSLKEGDIIKILNKKGQQGWWRGEIYGRVGWFPANMVEEDYS [Y55M], the abundance fitness was -0.012 ± 0.078.

For the variant KYFGTAKARYDFCARDRSELSLKEGDIIKILNKKGQQGWWRGEIYGRVGWFPACYVEEDYS [N54C], the abundance fitness is -0.017 ± 0.12.

For the variant KYFGTAKARYDFCARDRSELSLKEGDIIKILNKKGQQGWWRGEIYGRVGWFPADYVEEDYS [N54D], the abundance fitness is 0.064 ± 0.087.

For KYFGTAKARYDFCARDRSELSLKEGDIIKILNKKGQQGWWRGEIYGRVGWFPAWYVEEDYS [N54W], the abundance fitness is -0.091 ± 0.096.

As to KYFGTAKARYDFCARDRSELSLKEGDIIKILNKKGQQGWWRGEIYGRVGWFPAPYVEEDYS [N54P], the abundance fitness was -0.29 ± 0.089.

As for KYFGTAKARYDFCARDRSELSLKEGDIIKILNKKGQQGWWRGEIYGRVGWFPATYVEEDYS [N54T], the abundance fitness is -0.112 ± 0.094.

As for KYFGTAKARYDFCARDRSELSLKEGDIIKILNKKGQQGWWRGEIYGRVGWFPAGYVEEDYS [N54G], the abundance fitness was -0.065 ± 0.062.

KYFGTAKARYDFCARDRSELSLKEGDIIKILNKKGQQGWWRGEIYGRVGWFPAMYVEEDYS [N54M]: the abundance fitness was -0.214 ± 0.097.

As for KYFGTAKARYDFCARDRSELSLKEGDIIKILNKKGQQGWWRGEIYGRVGWFPAQYVEEDYS [N54Q], the abundance fitness is -0.201 ± 0.12.

For the variant KYFGTAKARYDFCARDRSELSLKEGDIIKILNKKGQQGWWRGEIYGRVGWFPAIYVEEDYS [N54I], the abundance fitness was -0.376 ± 0.13.

In the case of KYFGTAKARYDFCARDRSELSLKEGDIIKILNKKGQQGWWRGEIYGRVGWFPALYVEEDYS [N54L], the abundance fitness is -0.219 ± 0.065.

In the case of KYFGTAKARYDFCARDRSELSLKEGDIIKILNKKGQQGWWRGEIYGRVGWFPAEYVEEDYS [N54E], the abundance fitness is 0.05 ± 0.086.

As to KYFGTAKARYDFCARDRSELSLKEGDIIKILNKKGQQGWWRGEIYGRVGWFPARYVEEDYS [N54R], the abundance fitness was determined as 0.055 ± 0.07.

KYFGTAKARYDFCARDRSELSLKEGDIIKILNKKGQQGWWRGEIYGRVGWFPAAYVEEDYS [N54A]: the abundance fitness turned out to be 0.051 ± 0.074.

Turning to KYFGTAKARYDFCARDRSELSLKEGDIIKILNKKGQQGWWRGEIYGRVGWFPAHYVEEDYS [N54H], the abundance fitness is -0.185 ± 0.15.

KYFGTAKARYDFCARDRSELSLKEGDIIKILNKKGQQGWWRGEIYGRVGWFPAKYVEEDYS [N54K]: the abundance fitness was -0.092 ± 0.11.

As for KYFGTAKARYDFCARDRSELSLKEGDIIKILNKKGQQGWWRGEIYGRVGWFPAFYVEEDYS [N54F], the abundance fitness was -0.406 ± 0.12.

For KYFGTAKARYDFCARDRSELSLKEGDIIKILNKKGQQGWWRGEIYGRVGWFPAVYVEEDYS [N54V], the abundance fitness is -0.098 ± 0.054.

Consider KYFGTAKARYDFCARDRSELSLKEGDIIKILNKKGQQGWWRGEIYGRVGWFPASYVEEDYS [N54S], for which the abundance fitness was -0.054 ± 0.053.

For KYFGTAKARYDFCARDRSELSLKEGDIIKILNKKGQQGWWRGEIYGRVGWFPANYVMEDYS [E57M], the abundance fitness is -0.105 ± 0.098.

For the variant KYFGTAKARYDFCARDRSELSLKEGDIIKILNKKGQQGWWRGEIYGRVGWFPANYVPEDYS [E57P], the abundance fitness was -1.02 ± 0.27.

With KYFGTAKARYDFCARDRSELSLKEGDIIKILNKKGQQGWWRGEIYGRVGWFPANYVNEDYS [E57N], the abundance fitness was -0.185 ± 0.16.

Take KYFGTAKARYDFCARDRSELSLKEGDIIKILNKKGQQGWWRGEIYGRVGWFPANYVDEDYS [E57D]: the abundance fitness was -0.172 ± 0.2.

On to KYFGTAKARYDFCARDRSELSLKEGDIIKILNKKGQQGWWRGEIYGRVGWFPANYVIEDYS [E57I], for which the abundance fitness was -0.073 ± 0.11.

In the case of KYFGTAKARYDFCARDRSELSLKEGDIIKILNKKGQQGWWRGEIYGRVGWFPANYVCEDYS [E57C], the abundance fitness was -0.284 ± 0.16.

Regarding KYFGTAKARYDFCARDRSELSLKEGDIIKILNKKGQQGWWRGEIYGRVGWFPANYVFEDYS [E57F], the abundance fitness is -0.175 ± 0.14.

For the variant KYFGTAKARYDFCARDRSELSLKEGDIIKILNKKGQQGWWRGEIYGRVGWFPANYVHEDYS [E57H], the abundance fitness is -0.424 ± 0.17.
